{
  "source": "paper PMC2891831",
  "about": "“Insight into the Mechanisms of Adenovirus Capsid Disassembly from Studies of Defensin Neutralization” (PLoS Pathogens, 2010)",
  "key": {"[1]": {"molecular_target": "HAdV-7p (virus particle) (human adenovirus 7 (HAdV-7p))", "assay": "co-sedimentation; as a1 but one concentration, 20 µM HD5; HD5 bound expressed as percent of HD5 bound to HAdV-5 in parallel samples"}, "[2]": {"molecular_target": "HAdV-19c (virus particle) (human adenovirus 19c (HAdV-19c))", "assay": "co-sedimentation; as a1 but one concentration, 20 µM HD5; HD5 bound expressed as percent of HD5 bound to HAdV-5 in parallel samples"}, "[3]": {"molecular_target": "HAdV-25p (virus particle) (human adenovirus 25 (HAdV-25p))", "assay": "co-sedimentation; as a1 but one concentration, 20 µM HD5; HD5 bound expressed as percent of HD5 bound to HAdV-5 in parallel samples"}, "[4]": {"molecular_target": "HAdV-51p (virus particle) (human adenovirus 51 (HAdV-51p))", "assay": "co-sedimentation; as a1 but one concentration, 20 µM HD5; HD5 bound expressed as percent of HD5 bound to HAdV-5 in parallel samples"}, "[5]": {"molecular_target": "Ad5.eGFP, replication-defective HAdV-5 vector (virus particle) (human adenovirus 5 (HAdV-5)) (UniProt P04133)", "assay": "co-sedimentation; equilibrium-binding assay; HD5 serially diluted in PBS and mixed with 5 µg purified virus, 1 h on ice; virus/HD5 complex separated from unbound HD5 by ultracentrifugation on a discontinuous nycodenz gradient (50 mM NaCl, 20 mM HEPES pH 7.4, 4°C); bound HD5 quantified after SDS-PAGE (Deep Purple stain) against a standard curve; apparent affinity, no estimate of non-specific binding"}},
  "note": "pKd: −log10 of the molar value.",
  "data": [
    {"substance": "human alpha-defensin HD5 (peptide)", "values": [
      {"measurement": "percent of the amount of HD5 bound to HAdV-5", "setting": "[1]", "value": 69.3, "unit": "%"},
      {"measurement": "percent of the amount of HD5 bound to HAdV-5", "setting": "[2]", "value": 32.5, "unit": "%"},
      {"measurement": "percent of the amount of HD5 bound to HAdV-5", "setting": "[3]", "value": 3.3, "unit": "%"},
      {"measurement": "percent of the amount of HD5 bound to HAdV-5", "setting": "[4]", "value": 24.6, "unit": "%"},
      {"measurement": "pKd", "setting": "[5]", "value": 4.84},
      {"measurement": "stoichiometry N (HD5 molecules per virus particle)", "setting": "[5]", "value": 2750}
    ]}
  ]
}
